From publication PMC5101480 (Scientific Reports, 2016)

Biological target: T1, TPR domain of SGTA (SGTA_TPR) (Homo sapiens, UniProt O43765)
T1 construct: thioredoxin A (TxA) fusion (N, cleaved yes); hexahistidine tag (N, cleaved yes); made in house; host or cells: E. coli BL21(DE3) Rosetta
Test: Isothermal titration calorimetry (ITC), SGTA_TPR titrated into Rpn13 or DMSLD peptide
Format: binding
Protocol: ITC experiments were performed using an ITC-200 microcalorimeter from Microcal (GE Healthcare) at 25 °C following the standard protocol as reported previously. Proteins or peptide samples were prepared in 10 mM potassium phosphate pH 6.0, 100 mM NaCl, 250 μM TCEP. In each titration, either 40 injections of 1 μL or 20 injections of 2 μL of SGTA_TPR each, at a concentration of 1 mM, were added to a sample of Rpn13 or the Rpn13 derived DMSLD peptide at a concentration of 50 μM in the reaction cell. A nonlinear least-squares minimization algorithm was applied to integrated heat data obtained for the titrations, corrected for heats of dilution, in order to fit the experimentally obtained values to a theoretical titration curve. This was performed using the MicroCal-Origin 7.0 software package. ΔH (reaction enthalpy change in kcal/mol), Kb (equilibrium binding constant in per molar), and n (molar ratio between the proteins in the complex) were used as fitting parameters. The reaction entropy, ΔS, was calculated using the relationships ΔG = −RT lnKb (R = 8.314 J/(mol K), T 298 K) where ΔG = ΔH − TΔS. Dissociation constants (Kd) have been determined for each interaction. Binding was assumed to be at one site (n = 1), to determine the binding affinity (Kd) and thermodynamic parameters.

T1 sequence (O43765 84-211): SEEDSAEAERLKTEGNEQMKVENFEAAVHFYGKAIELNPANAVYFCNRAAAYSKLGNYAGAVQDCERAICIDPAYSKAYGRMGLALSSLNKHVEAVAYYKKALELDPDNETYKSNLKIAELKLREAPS

B1: Rpn13_260-407: Rpn13 C-terminal domain (residues 260–407), human, expressed in E. coli (protein)
chain: QPIQLSDLQSILATMNVPAGPAGGQQVDLASVLTPEIMAPILANADVQERLLPYLPSGESLPQTADEIQNTLTSPQFQQALGMFSAALASGQLGPLMCQFGLPAEAVEAANKGDVEAFAKAMQNNAKPEQKEGDTKDKKDEEEDMSLD
modifications: left off: thioredoxin A (TxA), N-terminal, cleaved | His6, N-terminal, cleaved
notes: Rpn13 C-terminal domain (residues 260–407), human, expressed in E. coli
How did the “ΔS (ITC)” value (1 mM SGTA_TPR into 50 μM sample, pH 6.0, 25 °C, calculated from ΔG = −RT lnKb and ΔG = ΔH − TΔS) turn out when B1 was run?
Its value is 10.6 ± 0.8 cal/mol·K.

What about the “ΔH (ITC)” value (1 mM SGTA_TPR into 50 μM sample, pH 6.0, 25 °C, one site (n = 1)) of the same molecule?
Its value is -3.37 ± 0.08 kcal/mol.

And the Kd (ITC-200, 1 mM SGTA_TPR injected into 50 μM Rpn13 or DMSLD peptide, 10 mM potassium phosphate pH 6.0, 100 mM NaCl, 250 μM TCEP, 25 °C, one site (n = 1), read-out: dissociation constant, Kd (ITC))?
The Kd was 16.1 ± 1.4 µM.
